Laboratory results reported in publication PMC7566557 (Brain Communications, 2020).
Where two headings read alike, the source gives them in different places.

How the values were obtained:
[1] = molecular target: cofilin (endogenous, primary hippocampal neurons) (rat (endogenous in primary hippocampal neurons)) (UniProt P45592); experiment: proximity ligation
[2] = molecular target: Myc-(C32G)CAP2 (UniProt P40123); experiment: proximity ligation
[3] = molecular target: the molecule itself; experiment: non-reducing SDS-PAGE with Western blot
[4] = molecular target: the molecule itself; experiment: non-reducing SDS-PAGE with Western blot; remark: listed apart in the source

cofilin (endogenous, primary hippocampal neurons) (rat (endogenous in primary hippocampal neurons)), sequence (P45592 whole entry): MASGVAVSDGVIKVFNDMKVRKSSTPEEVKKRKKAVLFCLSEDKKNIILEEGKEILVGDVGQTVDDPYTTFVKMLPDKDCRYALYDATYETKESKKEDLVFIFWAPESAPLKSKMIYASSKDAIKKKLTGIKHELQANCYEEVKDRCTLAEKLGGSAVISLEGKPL

“Myc-CAP2 (from UniProt Q9CYT6 1-476) (natural protein)” was tested, and the PLA clusters/μm [1] was 0.032 clusters/μm, the PLA clusters/μm (CTRL) [1] was 0.0317 clusters/μm and the PLA clusters/μm (cLTP) [1] was 0.0984 clusters/μm.

Work on “EGFP-CAP2 (from UniProt Q9CYT6 1-476) (natural protein)” yielded a PLA clusters/μm [2] of 0.566 clusters/μm and a PLA clusters/μm (cLTP) [2] of 0.461 clusters/μm.

Molecule “Myc-(C32G)CAP2 (from UniProt P40123 1-477) (natural protein)” has a PLA clusters/μm [1] of 0.0144 clusters/μm and a PLA clusters/μm (cLTP) [1] of 0.0315 clusters/μm.

B1: CAP2 (endogenous, primary hippocampal neurons) (natural protein)
chain: MADMLGLMQRLEFAVSRLERLSSGLHEPPGGCGEVNSLSRGIVAPSVEAFDKLINSMVAEFLKNSRVLAGDVETHAEMVHGAFQAQRAFLLMVSQHQQPQENEVAVLLKPISEKIQEIQTFRERNRGSDMFNHLSAVSESIAALGWIAVSPKPGPYVKEMNDAATFYTNRVLRDYKHSDLRHVDWVRSYLKIWSELQAYIKEHHTTGLTWSKTGPVASTASAFSILSSGPGLPPPPPPPPPPGPPPPFENEGGKEEPSPSRSALFAQLNQGEAITKGLRHVTDDKKIYKNPSLRAQGQIRSPTKTRTPSPTSSKSNSPQKHAPVLELEGKKWRVEYQEDRNDLVISETELKQVAYIFKCDKSTLQIKGKVNSITVDNCKKFGLVFDHVVGIVEVINSKDIQIQVMGRVPTISINKTEGCHLYLSKDALDCEIVSAKSSEMNVLVPQGDDYREFPIPEQFKTIWDGSKLITEPAEIMA
With B1 the “stoichiometry N” value [3] was 2.

B2: CAP2 (endogenous, human hippocampus) (natural protein)
chain: MANMQGLVERLERAVSRLESLSAESHRPPGNCGEVNGVIAGVAPSVEAFDKLMDSMVAEFLKNSRILAGDVETHAEMVHSAFQAQRAFLLMASQYQQPHENDVAALLKPISEKIQEIQTFRERNRGSNMFNHLSAVSESIPALGWIAVSPKPGPYVKEMNDAATFYTNRVLKDYKHSDLRHVDWVKSYLNIWSELQAYIKEHHTTGLTWSKTGPVASTVSAFSVLSSGPGLPPPPPPLPPPGPPPLFENEGKKEESSPSRSALFAQLNQGEAITKGLRHVTDDQKTYKNPSLRAQGGQTQSPTKSHTPSPTSPKSYPSQKHAPVLELEGKKWRVEYQEDRNDLVISETELKQVAYIFKCEKSTIQIKGKVNSIIIDNCKKLGLVFDNVVGIVEVINSQDIQIQVMGRVPTISINKTEGCHIYLSEDALDCEIVSAKSSEMNILIPQDGDYREFPIPEQFKTAWDGSKLITEPAEIMA
B2 was tested, and the “stoichiometry N” value [3] was 2.

B3: CAP2 (endogenous, mouse hippocampus) (natural protein)
chain: MTDMAGLMERLERAVIRLEQLSAGLDGPPRGCGEVNGVNGGVAPSVEAFDKLINSMVAEFLKNSRVLAGDVETHAEMVHGAFQAQRAFLLMVSQYQQPQENEVAVLLKPISEKIQEIQTFRERNRGSNMFNHLSAVSESIAALGWIAVSPKPGPYVKEMNDAATFYTNRVLKDYKHSDLRHVDWVRSYLNIWSELQAYIREHHTTGLTWSKTGPVASTASAFSILSSGPGLPPPPPPPPPPGPPPPFENEDKKEEPSPSRSALFAQLNQGEAITKGLRHVTDDKKTYKNPSLRAQGQIRSPTKTHTPSPTSPKSNSPQKHTPVLELEGKKWRVEYQEDRNDLVISETELKQVAYIFKCDKSTLQIKGKVNSITVDNCKKFGLVFDHVVGIVEVINSKDIQIQVMGRVPTISINKTEGCHLYLSEDALDCEIVSAKSSEMNVLVPQDDDYREFPIPEQFKTIWDGSKLVTEPAEIMA
For B3, the “stoichiometry N” value [3] was 2.

B4: CAP2 (endogenous, rat hippocampus) (natural protein)
chain: B1 chain
For B4, the “stoichiometry N” value [3] was 2.

B5: Myc-CAP2 (natural protein)
chain: B3 chain
For B5, the “stoichiometry N” value [4] was 2.
